Substitutions are numbered along the chain they refer to. Names may count otherwise.
Biological target: T1, EsCas13d, nuclease-dead (Eubacterium siraeum, UniProt B0MS50, R295A;H300A;R849A;H854A)
T1 sequence: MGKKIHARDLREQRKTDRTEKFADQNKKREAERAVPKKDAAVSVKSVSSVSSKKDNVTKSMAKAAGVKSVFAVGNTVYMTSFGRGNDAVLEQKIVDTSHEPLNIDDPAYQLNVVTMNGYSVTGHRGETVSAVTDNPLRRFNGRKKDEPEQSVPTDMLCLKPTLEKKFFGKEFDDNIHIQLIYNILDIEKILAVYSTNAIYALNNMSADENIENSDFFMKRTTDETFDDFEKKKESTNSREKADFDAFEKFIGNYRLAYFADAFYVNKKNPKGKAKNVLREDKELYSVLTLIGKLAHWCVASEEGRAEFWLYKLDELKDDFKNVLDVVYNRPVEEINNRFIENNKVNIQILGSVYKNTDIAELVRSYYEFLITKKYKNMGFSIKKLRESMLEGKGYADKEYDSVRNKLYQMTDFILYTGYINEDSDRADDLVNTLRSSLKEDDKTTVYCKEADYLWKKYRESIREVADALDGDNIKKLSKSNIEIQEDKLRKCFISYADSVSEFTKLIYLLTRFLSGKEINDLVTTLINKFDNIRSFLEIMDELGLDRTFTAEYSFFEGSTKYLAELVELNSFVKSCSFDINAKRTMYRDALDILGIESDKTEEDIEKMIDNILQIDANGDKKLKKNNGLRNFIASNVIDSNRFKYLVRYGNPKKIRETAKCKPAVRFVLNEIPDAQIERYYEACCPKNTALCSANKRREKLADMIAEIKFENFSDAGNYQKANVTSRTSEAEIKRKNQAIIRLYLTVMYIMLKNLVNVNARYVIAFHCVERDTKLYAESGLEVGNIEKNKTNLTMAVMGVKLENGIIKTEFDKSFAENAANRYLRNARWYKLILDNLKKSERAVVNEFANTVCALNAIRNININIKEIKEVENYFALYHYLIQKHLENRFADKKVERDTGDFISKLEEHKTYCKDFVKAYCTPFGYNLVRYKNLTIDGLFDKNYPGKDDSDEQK
Assay: crRNA (strand 1, pre-loaded); Mg2+; 40 mM Tris-HCl pH 7.5, 150 mM NaCl, 6 mM MgCl2, 1 mM DTT, 0.1% Tween-20, 0.2 mg/ml BSA; 25 C; 10 min per concentration, then washed
Settings: tags: His6-TwinStrep-SUMO cleaved; N-terminal SNAP kept (SNAP-Surface 488); label: 3' end held by stalled T7 RNA polymerase

B1: target 1 MT 5'PFS GCG 3'PFS ACG (mixed)
RNA 1: CACCCGUGCAAAAAUGCAGGGGUCUAAAACUGAGCGGAUAACCUCUCUAUGG
RNA 2: GGGAAUGGAUCCACAUCUACGAAUUCGCGCCAUAGAGAGGUUAUCCGCUCAACGAGAUCGGAAGAGCACACGU
- Kd: 49.5 ± 10 nM

B2: target 1 MT 5'PFS UGC 3'PFS CAA (mixed)
RNA 1: B1 RNA 1
RNA 2: B1 RNA 2 with G27U, C28G, G29C, A52C, C53A, G54A
- Kd: 63 ± 28.5 nM

B3: target 1 MT 5'PFS UCA 3'PFS CUA (mixed)
RNA 1: B1 RNA 1
RNA 2: B1 RNA 2 with G27U, G29A, A52C, C53U, G54A
- Kd: 9.45 ± 2.55 nM

B4: target 1 MT 5'PFS ACA 3'PFS ACC (mixed)
RNA 1: B1 RNA 1
RNA 2: B1 RNA 2 with G27A, G29A, G54C
- Kd: ~47.5 nM

B5: target 1 insA 3' of 17,insU 3' of 5 (mixed)
RNA 1: B1 RNA 1
RNA 2: GGGAAUGGAUCCACAUCUACGAAUUCGUACCAUAGAAGAGGUUAUCCGUCUCACCGAGAUCGGAAGAGCACACGU
- Kd: 25.8 ± 2.8 nM

B6: target 1 MT 5'PFS GGU 3'PFS UCC (mixed)
RNA 1: B1 RNA 1
RNA 2: B1 RNA 2 with C28G, G29U, A52U, G54C
- Kd: 21 ± 5.5 nM

B7: target 1 MT 5'PFS GCU 3'PFS GAA (mixed)
RNA 1: B1 RNA 1
RNA 2: B1 RNA 2 with G29U, A52G, C53A, G54A
- Kd: ~110 nM

B8: target 1 MT 5'PFS UGC 3'PFS CAC (mixed)
RNA 1: B1 RNA 1
RNA 2: B1 RNA 2 with G27U, C28G, G29C, A52C, C53A, G54C
- Kd: ~65 nM

B9: target 1 MT 5'PFS GCG 3'PFS ACA (mixed)
RNA 1: B1 RNA 1
RNA 2: B1 RNA 2 with G54A
- Kd: 32.5 ± 14.5 nM

B10: target 1 MT 5'PFS CCU 3'PFS CUG (mixed)
RNA 1: B1 RNA 1
RNA 2: B1 RNA 2 with G27C, G29U, A52C, C53U
- Kd: 21 ± 7 nM

B11: target 1 MT 5'PFS UAA 3'PFS CUG (mixed)
RNA 1: B1 RNA 1
RNA 2: B1 RNA 2 with G27U, C28A, G29A, A52C, C53U
- Kd: 25.8 ± 5.25 nM

B12: target 1 MT 5'PFS GCU 3'PFS ACC (mixed)
RNA 1: B1 RNA 1
RNA 2: B1 RNA 2 with G29U, G54C
- Kd: 43 ± 14.5 nM

B13: target 1 MT 5'PFS GUC 3'PFS CGC (mixed)
RNA 1: B1 RNA 1
RNA 2: B1 RNA 2 with C28U, G29C, A52C, C53G, G54C
- Kd: 22 ± 4.5 nM

B14: target 1 MT 5'PFS UCA 3'PFS UAA (mixed)
RNA 1: B1 RNA 1
RNA 2: B1 RNA 2 with G27U, G29A, A52U, C53A, G54A
- Kd: 9.45 ± 3.3 nM

B15: target 1 insG 3' of 22,insC 3' of 14 (mixed)
RNA 1: B1 RNA 1
RNA 2: GGGAAUGGAUCCACAUCUACGAAUUCGUACGCAUAGAGACGGUUAUCCGCUCACCGAGAUCGGAAGAGCACACGU
- Kd: 41 ± 17 nM

B16: target 1 MT 5'PFS GUC 3'PFS CGA (mixed)
RNA 1: B1 RNA 1
RNA 2: B1 RNA 2 with C28U, G29C, A52C, C53G, G54A
- Kd: 19.5 ± 4 nM

B17: target 1 MT 5'PFS GUC 3'PFS CGG (mixed)
RNA 1: B1 RNA 1
RNA 2: B1 RNA 2 with C28U, G29C, A52C, C53G
- Kd: 28.5 ± 7 nM

B18: target 1 MT 5'PFS AAU 3'PFS AUC (mixed)
RNA 1: B1 RNA 1
RNA 2: B1 RNA 2 with G27A, C28A, G29U, C53U, G54C
- Kd: 28.5 ± 12 nM

B19: target 1 MT 5'PFS UCA 3'PFS UAU (mixed)
RNA 1: B1 RNA 1
RNA 2: B1 RNA 2 with G27U, G29A, A52U, C53A, G54U
- Kd: 11.5 ± 2.3 nM

B20: target 1 MT 5'PFS UCA 3'PFS CUC (mixed)
RNA 1: B1 RNA 1
RNA 2: B1 RNA 2 with G27U, G29A, A52C, C53U, G54C
- Kd: 12.9 ± 3.1 nM

B21: target 1 MT 5'PFS GCU 3'PFS ACG (mixed)
RNA 1: B1 RNA 1
RNA 2: B1 RNA 2 with G29U
- Kd: 43.5 ± 10.5 nM

B22: target 1 MT 5'PFS UGC 3'PFS UUG (mixed)
RNA 1: B1 RNA 1
RNA 2: B1 RNA 2 with G27U, C28G, G29C, A52U, C53U
- Kd: 10.7 ± 2.05 nM

B23: target 1 MT 5'PFS ACU 3'PFS ACA (mixed)
RNA 1: B1 RNA 1
RNA 2: B1 RNA 2 with G27A, G29U, G54A
- Kd: ~90 nM

B24: target 1 MT 5'PFS ACA 3'PFS ACU (mixed)
RNA 1: B1 RNA 1
RNA 2: B1 RNA 2 with G27A, G29A, G54U
- Kd: 9.3 ± 2.9 nM

B25: target 1 MT 5'PFS ACG 3'PFS AAG (mixed)
RNA 1: B1 RNA 1
RNA 2: B1 RNA 2 with G27A, C53A
- Kd: 26.5 ± 11 nM

B26: target 1 MT 5'PFS GCA 3'PFS CUA (mixed)
RNA 1: B1 RNA 1
RNA 2: B1 RNA 2 with G29A, A52C, C53U, G54A
- Kd: 18.4 ± 4.7 nM

B27: target 1 MT 5'PFS UAA 3'PFS CUC (mixed)
RNA 1: B1 RNA 1
RNA 2: B1 RNA 2 with G27U, C28A, G29A, A52C, C53U, G54C
- Kd: 74 ± 28 nM

B28: target 1 MT 5'PFS UGC 3'PFS UUC (mixed)
RNA 1: B1 RNA 1
RNA 2: B1 RNA 2 with G27U, C28G, G29C, A52U, C53U, G54C
- Kd: 14 ± 3.7 nM

B29: target 1 MT 5'PFS UAG 3'PFS UAG (mixed)
RNA 1: B1 RNA 1
RNA 2: B1 RNA 2 with G27U, C28A, A52U, C53A
- Kd: 73.5 ± 28 nM

B30: target 1 MT 5'PFS CCU 3'PFS CUU (mixed)
RNA 1: B1 RNA 1
RNA 2: B1 RNA 2 with G27C, G29U, A52C, C53U, G54U
- Kd: 6.65 ± 1.95 nM

B31: target 1 MT 5'PFS GAG 3'PFS UUA (mixed)
RNA 1: B1 RNA 1
RNA 2: B1 RNA 2 with C28A, A52U, C53U, G54A
- Kd: 36 ± 9 nM

B32: target 1 MT 5'PFS GAG 3'PFS UUC (mixed)
RNA 1: B1 RNA 1
RNA 2: B1 RNA 2 with C28A, A52U, C53U, G54C
- Kd: 37 ± 11 nM

B33: target 1 MT 5'PFS GCA 3'PFS CUU (mixed)
RNA 1: B1 RNA 1
RNA 2: B1 RNA 2 with G29A, A52C, C53U, G54U
- Kd: 11.8 ± 2.55 nM

B34: target 1 MT 5'PFS UCA 3'PFS UAG (mixed)
RNA 1: B1 RNA 1
RNA 2: B1 RNA 2 with G27U, G29A, A52U, C53A
- Kd: ~50 nM

B35: target 1 MT 5'PFS GCC 3'PFS CCA (mixed)
RNA 1: B1 RNA 1
RNA 2: B1 RNA 2 with G29C, A52C, G54A
- Kd: 95 ± 40 nM

B36: target 1 MT 5'PFS GGU 3'PFS UCA (mixed)
RNA 1: B1 RNA 1
RNA 2: B1 RNA 2 with C28G, G29U, A52U, G54A
- Kd: 44 ± 19 nM

B37: target 1 U11C,A18C (mixed)
RNA 1: B1 RNA 1
RNA 2: B1 RNA 2 with C28U, G29A, A34C, U41C, A52C
- Kd: 75 ± 10 nM

B38: target 1 MT 5'PFS ACA 3'PFS ACA (mixed)
RNA 1: B1 RNA 1
RNA 2: B1 RNA 2 with G27A, G29A, G54A
- Kd: ~31 nM

B39: target 1 C2A,A18C (mixed)
RNA 1: B1 RNA 1
RNA 2: B1 RNA 2 with C28U, G29A, A34C, C50A, A52C
- Kd: 47.9 ± 3.3 nM

B40: target 1 MT 5'PFS GCU 3'PFS ACU (mixed)
RNA 1: B1 RNA 1
RNA 2: B1 RNA 2 with G29U, G54U
- Kd: 33 ± 11 nM

Reference: article PMC10786891, “Massively parallel profiling of RNA-targeting CRISPR-Cas13d”
